# Results as given in patent publication US20210252159A1, “CONJUGATES OF CARTILAGE-HOMING PEPTIDES” (priority 2018, published 2021).
# Positions of bridges follow the written chain, without caps; N, C: chain ends. Residues, ends and D or L forms follow the SMILES beside them. *: point of attachment. X1 = CC(CCC(C)C(=O)*)C(=O)OCC(=O)[C@@]1(O)[C@H](C)C[C@H]2[C@@H]3CCC4=CC(=O)C=C[C@]4(C)[C@@]3(F)[C@@H](O)C[C@@]21C
# Tested on: CIA rats
# Method: Arthritis was induced in 9-week-old female Lewis rats (Envigo or Charles River Laboratories) by intradermal injection while anesthetized of 400 ug bovine type II collagen (Chondrex Inc, Redmond Wash.) in 2 adjacent 200 ul (1 mg/ml) doses on day 0. Collagen is prepared for injection by dissolving at 2 mg/ml in 0.01N glacial acetic acid in sterile water and rocking at 4° C. overnight then emulsifying in Freund's incomplete adjuvant (IFA, Sigma Aldrich). To emulsify, equal volumes of collagen solution and IFA are drawn up into separate syringes, which are joined by a 3-way stopcock. While on ice, the collagen and IFA are mixed by pressing between the two syringes rapidly for 10 minutes. Quality of the emulsification is tested after 10 minutes of mixing by dropping a small amount of mixture in water. A properly emulsified solution will remain as a discrete droplet and not disperse in the water. On day 7, rats are challenged with a second intradermal injection of 100 ug of collagen in 100 ul, 1 mg/ml, collagen in IFA solution prepared fresh. Body weight and ankle diameter measurements are recorded daily from day 7 through the end of the study. Ankle diameter was measure by a single researcher using a Fowler Digitrix 2 micrometer. Three measurements of each ankle were taken of the lateral dimension at the tarsus of lightly anesthetized rats. The reported ankle diameter measurement is the mean of the three measurements.
# Arthritis was induced as described in four cohorts of 9-week-old female Lewis rats. Rats were randomly placed in treatment groups, balancing compound and dose groups across cohorts. […] Rats were dosed by tail vein injection on days 11 and 12 and euthanized on day 13 by CO2 asphyxiation. Immediately after cessation of respiratory movement, blood was collected by cardiac puncture, synovial fluid was collected from both knees, one hind limb was fixed in formalin and the alternate ankle was frozen on dry ice. Thymus, spleen, liver, and kidney weights were recorded.
# CIA Response study design.
# The aim of the study was to test the 4 conjugates with various linkers at two different doses in vivo in CIA rats to assess the following: ability to deliver sufficient dexamethasone to the joint to show functionality and potential therapeutic effect in the disease model.
# CIA was induced in female Lewis rats (as described above, see EXAMPLE 21). Body weight and ankle joint diameters were measured on day 0 and then daily from day 7 until euthanasia. […] At euthanasia, synovial fluid was collected from both knees, one hind limb was fixed in formalin and the alternate ankle was frozen on dry ice. Thymus, spleen, liver, and kidney weights were recorded. Blood samples were submitted for CBC/Chemistry analysis, and the remaining plasma was frozen.
smiles,measurement,setting,value
"CC[C@H](C)[C@@H]1NC(=O)[C@@H]2CSSC[C@H](NC(=O)[C@H](CCCNC(=N)N)NC(=O)[C@@H](NC(=O)[C@H](CC(N)=O)NC(=O)[C@@H](NC(=O)[C@@H]3CCCN3C(=O)[C@@H](NC(=O)CNC(=O)[C@H](CO)NC(=O)CNC(=O)C(C)CCC(C)C(=O)OCC(=O)[C@@]3(O)[C@H](C)C[C@H]4[C@@H]5CCC6=CC(=O)C=C[C@]6(C)[C@@]5(F)[C@@H](O)C[C@@]43C)C(C)C)[C@@H](C)CC)C(C)C)C(=O)N[C@@H](CCCNC(=N)N)C(=O)NCC(=O)N[C@@H](CO)C(=O)N[C@@H](CCCNC(=N)N)C(=O)N[C@@H](CC(=O)O)C(=O)N[C@H]3CSSC[C@H](NC(=O)[C@H](CCCNC(=N)N)NC(=O)[C@H](CO)NC(=O)[C@H](CC(N)=O)NC1=O)C(=O)N[C@@H](Cc1c[nH]cn1)C(=O)N[C@H](C(=O)N[C@H](C(=O)N1CCC[C@H]1C(=O)O)[C@@H](C)O)CSSC[C@H](NC(=O)[C@@H]1CCCN1C(=O)[C@H](CC(=O)O)NC(=O)[C@H](CC(C)C)NC3=O)C(=O)N[C@@H](CCCNC(=N)N)C(=O)N[C@@H](CCCNC(=N)N)C(=O)N[C@@H](C)C(=O)NCC(=O)N[C@@H](CCSC)C(=O)N[C@@H](CCCNC(=N)N)C(=O)N[C@@H](Cc1ccccc1)C(=O)NCC(=O)N[C@@H](CCCNC(=N)N)C(=O)N2 (stereo partly shown) [Compound 27, peptide(SEQ ID NO: 105)-[dimethyladipic acid]-Dex] (X1-GSGVPINVRCRGSRDCLDPCRRAGMRFGRCINSRCHCTP-OH; disulfide 10-30, 16-35, 20-37 (inferred); C-terminus assumed)",ankle swelling over time as compared to vehicle,0.2 mg/kg and 0.5 mg/kg Dex equivalents IV days 11 and 12,reduction in ankle swelling
same,spleen weight,0.2 mg/kg and 0.5 mg/kg dose,reduction
same,thymus weight,0.2 mg/kg and 0.5 mg/kg dose,reduction
same,total body weight,0.2 mg/kg and 0.5 mg/kg dose,reduction
same,change in median ankle diameter between day 11 and day 13 as compared to vehicle,0.2 mg/kg dose,statistically significant reduction in ankle diameter
same,difference from Dex in change in ankle diameter,0.2 mg/kg dose,no statistically significant difference
same,mortality and tolerability,"1 mg/kg Dex equivalents IV, some rats",died overnight
